Experiment: soluble on expression in E. coli; label from the status in PepcDB or PDB records

Row | Sequence | soluble on expression in E. coli
1 | MGCLGNSKTEDQRNEEKAQREANKKIEKQLQKDKQVYRATHRLLLLGAGESGKSTIVKQMRILHVNGFNGEGGEEDPQAARSNSDGEKATKVQDIKNNLKEAIETIVAAMSNLVPPVELANPENQFRVDYILSVMNVPDFDFPPEFYEHAKALWEDEGVRACYERSNEYQLIDCAQYFLDKIDVIKQDDYVPSDQDLLRCRVLTSGIFETKFQVDKVNFHMFDVGGQRDERRKWIQCFNDVTAIIFVVASSSYNMVIREDNQTNRLQEALNLFKSIWNNRWLRTISVILFLNKQDLLAEKVLAGKSKIEDYFPEFARYTTPEDATPEPGEDPRVTRAKYFIRDEFLRISTASGDGRHYCYPHFTCAVDTENIRRVFNDCRDIIQRMHLRQYELLGGHHHHHH | soluble
2 | MKTPRLPIAIQQAVMRRLRENLAQANLKLDRHYPEPKLVYTQRGTSAGTAWLESYEIRLNPVLLLENIDTFIAEVVPHELTHLLVWKHFGRKAPHGKEWKWMMESVLGVPARRTHQFALQSVRRNTFPYHCQCQQHQLTVRRHNRVVRGEAVYRCVHCGEPLVAGLEHHHHHH | not soluble
3 | DIHRQAYAAMLHSSQSSLGTALKFFHAQSVIDNAYDQEHVHYIDRQVKTRKGMPEASADSIRALLEIDLPARGYSKIDVPCKGSDFCIIGQQHPNSAHFVAIPDYQFLDKSGFDRVVYIWPQGYTLAEEACYFYYVNQASTDSIVRGHVTQGC | not soluble
4 | MKLKVTVNGAGKAGEGEIPAPLAGTVSKILVKEGDTVKAGQTVLVLEAMKMETEINAPTDGKVEKVLVKERDAVQGGQGLIKIG | soluble
5 | MKTTPDILDQIRVHGADAYPEEGCGFLLGTVTDDGDNRVAALHRATNRRSEQRTRRYELTADDYRAADAAAQEQGLDVVGVYHSHPDHPARPSATDLEEATFPGFTYVIVSVRDGAPEALTAWALAPDRSEFHREDIVRPDPEAPLEHHHHHH | soluble
6 | MPKNKGKGGKNRRRGKNDSEGDKRELVFKEEGQEYGQVQRMLGNGRLDAYCFDGQKRLCHIRGKMRKKVWVNPGDIVLVSLRDFQDSKGDIILKYTPDEARALKSKGEIPETTKINE | soluble
7 | MSLRTEEEMFQLIMDVAKQEEHIRAVGMVGSRTNVKAPKDSFQDFDIVYIVEPCAEFFETATWIAKFGQPLIMQRPKEMTLFPTEPKTRETFLMLFEDGQRIDLTLCPLAEKDNWHEGDSLAIILLDKDENLPPLPVASDKNYTVTVPDQQQFNDCCNEFWWVSTYVVKGLCRNELFYAVTHLYEYCQQELLRLLSWQAAWQEPEPISVGKQFKYLKNYVTPDTMDQLASLLDFSSKEACWNSLIKTQAFFDVVAQDFAKMAQFTYHLQEAKKVTEYTNSLRLKDLQGKEGHHHHHH | soluble
8 | HHHHHHKVDLGGFAGLFDLKAAGFKDPLLASGTDGVGTKLKIAQLCNKHDTIGQDLVAMCVNDILAQGAEPLFFLDYFSCGKLDLSVTEAVVAGIAKACGKAGCALLGGETAEMPDMYPPGEYDLAGFAVGAMERDQKLPHLERITEGDVVVGIASSGLHSNGFSLVRKIVAKSSLQYSSPAPDGCGDQTLGDLLLTPTRIYSHSLLPVLRSGHVKAFAHITGGGLLENIPRVLPEKLGVDLDAQTWRIPRVFSWLQQEGHLSEEEMARTFNCGVGAVLVVSKEQTEQILRGIQQHKEEAWVIGSVVARAEGSPRVKVKNLIESMQINGSVLKN | soluble
9 | MSFDANIATQYYILMTIKTFRCADPETLFKLGRVARFVNIERPALRKLKQLDLARCIEDIRVPPANRPEILKGDRAGQHSIRINDQWRVCFRWTGTDAEDVEIVDYH | not soluble
10 | MGSDKIHHHHHHMSNENIVLARNTERAPKHHLAAQTVAFSHYNHLSAQLPIEPTSGQLVEGGIRAQATQCLKNIQAVVESINHVMSDIVRMTIFVKDMRDAAAVEEVYAAFFTHYYPAKTVVAVADLPLGASVQMEALVSNGEGTIPNAPQAGDLIKLTNQTVQAPIDALASQTVAFSHYNNLSAQLPIDPQTGRVVAGCVKTQTKQCLKNIKAILTSIDVPFDDIVKINIYLKDLSKLEAVNQVHAAFFPDSGIARTVNYMPARTVIAVADLPMGAAVQVEAVVSHGDGTPPQAIEDRHGLIIEANNTEHAPKCPFSTQTVAFSHYNHLSAQLPLDPKTNALVAGGIKEQTTQCLENIKAIIESVDHSLADLVKVNIFVKEIEELAAVDDVYQTYFPEGTPARRVIGVTDLPKGAQIQIEAIAGNAEGTPPIG | not soluble
11 | EEQPRLFELLGQPGYKATWHAMFKGESDVPKWVSDASGPSSPSTSLSLEGQPYVLANSCKPHDCGNNRLLVAFRGDKSAAYGLQVSLPDEPAEVMQTPSKYATYRWYGEPSRQVRELLMKQLESDPNWKLEHHHHHH | soluble
12 | YEVKVKLADIQADPNSPLYSAKSFDELGLAPELLKGIYAMKFQKPSKIQERALPLLLHNPPRNMIAQSQSGTGKTAAFSLTMLTRVNPEDASPQAICLAPSRELARQTLEVVQEMGKFTKITSQLIVPDSFEKNKQINAQVIVGTPGTVLDLMRRKLMQLQKIKIFVLDEADNMLDQQGLGDQCIRVKRFLPKDTQLVLFSATFADAVRQYAKKIVPNANTLELQT | soluble
13 | MEAKLQVGVLGFGTVGSGVIHILEEHQEKISQVTGYHISVKKVLVRDLEKNRRYETKGFELTTNPSDVLDDPEIAVVVEVMGSITTAREYILQALKAGKHVVTANKDLIALHGDELVAVAQANNCDLFYEASVAGGIPILRTIVNSLAADKIQKVMGIVNGTTNFMLTKMTTEKKSYEEVLAEAQALGFAESDPTNDVDGIDAARKMVIMTRLAFGMNVNLDNVETSGIRGISPEDIEVAYQLGYKIKLVGTAEETNGTVNVNVGPVLLPKAHPLAGVNYENNAVFVTGAAVGETMFYGPGAGELPTATSVVSDLITVAKNSRLGTNGNAFNSYKHETKHTPKEQVFSKYYLRLTMDDKTGTFLKLTQIFAEAGVGFDKILQQPYDDFTATVVIVTHSTSQAQLEQAITRVKNEPEMQMLAKYSVVEG | soluble
14 | MNVTLLVADAVWSNIESTGSVTEEQLSILQLLFGKNLEKATRIIDKRGVKKISGLPSGRSIFQVVGESQKREEYLCFPGDYCGCYSFFYDVVSRGEHQCCKHQLAARLASSLGTYNEIEVSDDHLALMLSKI | not soluble
15 | RELIHFAHGNGFPSLCYKQLLEQLETRFDCCFIDKIGHDPDYPVGENWHNLVAEIIASIKRQAEQPVIAVGHSLGGVLSLLAAIEQPKLFKAVIMLDSPLIGAFKSSMVRLAKALGIIDRVTPAFRTKKRREHWQNYEQLISYLKTRDLFKTFTEECLNDYIKYGLQYKEDGYYLRFDRHVEYQIYRTIPHVIPRYKGKLIVPAALIYGDKSTVVDRMDIRYMKNHFNVKCFKTMGTHLFPMEHPKAVGKQVIEVIDAII | not soluble
16 | MGSDKIHHHHHHMKKSVMLLVCLLGLSACSTKFSYRFLDWAIGWEQEDYVTLDKTQQKAFDTLVEKMVFWHQSKELAHYVVQLKEVENLIKTNELTPLLWAEHVDIAKRHWFRVFEFAMPELLPIIMSLTDSQVKQILTKLREDEQALVKEFAGKSPEQLQKDADKRLQKQFEDWLGSVSAEQKSLIHQYNQQRLSTLDMWLEYRHEWLRQFEVALGQRADKVLLTERLTLLMTQPDELKSEQHKAFLRQNTEAFGTLLLAMNGSLSAKQSKHFYKKLGKLIQDLTELNQEALEKEFKSMKALST | not soluble
17 | ETMVGSFRDTTDKWLSQRLAADIYIYPTNNSAGRMSAWLQDQPEVESVWWRWEKDVPTEHGALQVVSTGPSEGELDSLTVKLGVPNYWYQLHQTKSLMVSESMALKLDIRPGDYIDLQAPLGEGWQVVGVYYDYGNPYNQVMMSHRN | not soluble
18 | MGSDKIHHHHHHFKSKGKKSKRKKRNYFDSEDDDDESESETKYGGKFGKKKLEGLQKRLRETESAMSKILEQLESVQAGANPVDLDAADKRSEQLEEDPSVKEAVGLTETNEQYIKDLEVALKEFQSLSKEYDKAKMKKLKRKDSSSDEDEEDEEENSSELSEIEEEEEEVKPVKKSKSSSQSVGKRKNRPKSTSEEEDEGEEESRKVAEDAEEEGIDIDSEIREHAEKEKKDKNVRRRRPKKT | not soluble
19 | MGSDKIHHHHHHETNNLKTKEDMYKYFGTSKSMLTHVYSYMPQGYQLFATSGGIFTEDRYSMRDCASDDGEFGAYADNIQNTNNGNWSPIKTYDDSWTLYRGIRAANSFIAEIAQVDFTRYEHDGQYTNWMKQLKYFPYEARVLRAHYFFELARRYGDIAMPLEVLTEEEANTIGKTPFSEVISFIVSECDDAANNLPDSYVNEPGAEIGRVTKGFAMAVKSKALLYAASKLHNPSMDTELWKKSAKAAIDIINTGLYSLDPQESANNLDSKEVVLMRINGDDSDFEMFNLPLRMTAGTRTSSLIPYSNYPSQNLVDAFETVNGYKVTLENTGWVCEDPAFDPQSPYENRDKRFYRAILANGMSFKDYTIETFKGGADDGIVSQGGSPTGYFLRKYIQEATSFEPGKEAVSKHHWVIYRYAETLLTYAESMVNAFNDVNYTDETYKYSALWAINEVRKNADMPLIPSMGKDEFMERLYNEWRVEFAFEDHRFWDVRRWKIADTTQRELYGVKIEKQADGTFNFYKNLYETRNWRDCMYLYPIPQSELYKNTNLNPQNTGW | not soluble
20 | MSLKLILNTQINTKLREIDISNETELIMSNDFPVNKIAMTGKVGYADMQGQRGTMEDALIVDSNIGIYAIFDGHGGHIVSSLSAQRIHERLQSLQNGSEFRELITQAVDSVVGELKEKKVLGGSTMCLVRVGQDKIEVANIGDSRCVAILKDGTQRQLSNDHKPTYRPEVERIREKGSFVSKGRVQGRLAVARAIGDFAVLGIESVIEFTEIDKDIVSRIVIGCDGLYDVVSNEDCLKICNENQSAVTTAYKLRDRAFQRGSTDNISVIVVDCLEGHHHHHH | soluble
21 | MKKSLKQKIVSSLLAVSLAVSLAPIGQANADSTSEIKQTSSITKQVDASRAIEHIRFLSETIGPRPGGTKSEEWASRYVGMQLKSMGYEVEYQPFQVPDQYVGFIESPLSTKRNWQTGAAPNALISTESVTAPLIFVQGGTKLEDIPNEVNGKIVLFERGTTVADYNKQVENAVSKGAKGVLLYSLIGGRGNYGQTFNPRLTKKQSIPVFGLAYAQGNAFKEEIAKKGTTILSLKARHESNLTSLNVIAKKKPKNSTGNEKAVVVSSHYDSVVGAPGANDNASGTGLVLELARAFQNVETDKEIRFIAFGSEETGLLGSDYYVNSLSPKERDRILGVFNADMVATNYDKAKNLYAMMPNGSPNLVTDAALQAGKQLNNDLVLQGKFGSSDHVPFAEVGIPAALFIWMGVDSWNPLIYHIEKVYHTPQDNVFENISPERMKMALEVIGTGVYNTLQQSVTQTEQKAA | not soluble
22 | AQEVLRRTPLYDFHLAHGGKMVAFAGWSLPVQYRDSHTDSHLHTRQHCSLFDVSHMLQTKILGSDRVKLMESLVVGDIAELRPNQGTLSLFTNEAGGILDDLIVTNTSEGHLYVVSNAGCWEKDLALMQDKVRELQNQGRDVGLEVLDNALLALQGPTAAQVLQAGVADDLRKLPFMTSAVMEVFGVSGCRVTRCGYTGEDGVEISVPVAGAVHLATAILKNPEVKLAGLAARDSLRLEAGLCLYGNDIDEHTTPVEGSLSWTLGKRRRAAMDFPGAKVIVPQLKGRVQRRRVGLMCEGAPMRAHSPILNMEGTKIGTVTSGCPSPSLKKNVAMGYVPCEYSRPGTMLLVEVRRKQQMAVVSKMPFVPTNYYTLK | soluble

— the DeepSol protein solubility set
